From patent US20190022241A1 (AbbVie / Abbott, published 2019) come the findings set out here.

Changes are numbered by the printed parent chain.

The target in assay [1] is T1, SEZ6 Sushi Domain 3 (amino acids 690-748) on yeast (human, UniProt Q53EL9 709-767).
T1 construct: yeast display
Nature of the assay: yeast display, flow cytometry.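 Also: antibody binding to individual SEZ6 domains displayed on yeast, measured by flow cytometry, antibody at 50 nM purified or hybridoma supernatant diluted 1:2, 90 min on ice.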

The target in assay [2] is T2, hSEZ6-ECD-His (human, UniProt Q53EL9 20-925).
T2 construct: the whole entry is named; also called recombinant SEZ6-His; human recombinant SEZ6-His
Nature of the assay: bio-layer interferometry (ForteBio RED) or surface plasmon resonance (Biacore 2000) on human SEZ6-His; the table does not say which; column Hu Affinity (Kd, nM). (Biolayer interferometry detects binding as a change in optical thickness at a sensor tip.)

Assay [3] addresses T3, extracellular domain of cynomolgus SEZ6 on yeast (cynomolgus, UniProt Q53EL9 23-925 (human entry)).
T3 construct: yeast display; the whole entry is named; also called cSEZ6; cynomolgus SEZ6 ECD
T3 chain: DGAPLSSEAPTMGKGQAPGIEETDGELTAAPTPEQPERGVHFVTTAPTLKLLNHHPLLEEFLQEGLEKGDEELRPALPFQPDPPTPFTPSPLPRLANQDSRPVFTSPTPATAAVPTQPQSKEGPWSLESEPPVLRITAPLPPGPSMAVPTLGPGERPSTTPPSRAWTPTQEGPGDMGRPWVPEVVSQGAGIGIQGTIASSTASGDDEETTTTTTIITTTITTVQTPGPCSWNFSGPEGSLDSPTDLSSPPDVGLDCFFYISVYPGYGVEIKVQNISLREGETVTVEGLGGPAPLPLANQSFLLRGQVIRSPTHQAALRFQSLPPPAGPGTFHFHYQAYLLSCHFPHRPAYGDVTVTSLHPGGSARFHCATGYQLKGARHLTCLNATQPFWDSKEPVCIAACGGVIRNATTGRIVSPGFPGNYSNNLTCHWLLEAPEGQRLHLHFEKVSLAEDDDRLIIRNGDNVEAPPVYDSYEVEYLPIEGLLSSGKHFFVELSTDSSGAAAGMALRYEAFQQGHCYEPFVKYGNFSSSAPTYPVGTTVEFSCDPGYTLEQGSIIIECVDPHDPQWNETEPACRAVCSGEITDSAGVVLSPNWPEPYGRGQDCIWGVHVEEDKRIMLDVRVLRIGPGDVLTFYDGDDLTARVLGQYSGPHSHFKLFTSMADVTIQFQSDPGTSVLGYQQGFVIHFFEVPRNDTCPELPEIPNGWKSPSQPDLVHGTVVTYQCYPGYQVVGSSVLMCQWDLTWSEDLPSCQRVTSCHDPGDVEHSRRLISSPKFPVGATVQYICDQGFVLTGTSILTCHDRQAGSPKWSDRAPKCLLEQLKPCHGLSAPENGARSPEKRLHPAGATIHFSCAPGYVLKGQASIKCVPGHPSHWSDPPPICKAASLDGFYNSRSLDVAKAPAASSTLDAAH
Nature of the assay: flow cytometry on yeast displaying the extracellular domain of cynomolgus SEZ6.

Assay [4] concerns the target T4, human SEZ6L2 ECD-His (human, UniProt Q6UXD5 28-843).
T4 construct: whole entry named
Briefly: ELISA on plates coated with SEZ6L2 protein.

Assay [5] has as its target T5, rSEZ6-ECD-His (rat, UniProt Q7TSK2 20-922 (mouse entry)).
T5 construct: the whole entry is named; also called rat recombinant SEZ6-His; rat SEZ6 ECD
T5 chain: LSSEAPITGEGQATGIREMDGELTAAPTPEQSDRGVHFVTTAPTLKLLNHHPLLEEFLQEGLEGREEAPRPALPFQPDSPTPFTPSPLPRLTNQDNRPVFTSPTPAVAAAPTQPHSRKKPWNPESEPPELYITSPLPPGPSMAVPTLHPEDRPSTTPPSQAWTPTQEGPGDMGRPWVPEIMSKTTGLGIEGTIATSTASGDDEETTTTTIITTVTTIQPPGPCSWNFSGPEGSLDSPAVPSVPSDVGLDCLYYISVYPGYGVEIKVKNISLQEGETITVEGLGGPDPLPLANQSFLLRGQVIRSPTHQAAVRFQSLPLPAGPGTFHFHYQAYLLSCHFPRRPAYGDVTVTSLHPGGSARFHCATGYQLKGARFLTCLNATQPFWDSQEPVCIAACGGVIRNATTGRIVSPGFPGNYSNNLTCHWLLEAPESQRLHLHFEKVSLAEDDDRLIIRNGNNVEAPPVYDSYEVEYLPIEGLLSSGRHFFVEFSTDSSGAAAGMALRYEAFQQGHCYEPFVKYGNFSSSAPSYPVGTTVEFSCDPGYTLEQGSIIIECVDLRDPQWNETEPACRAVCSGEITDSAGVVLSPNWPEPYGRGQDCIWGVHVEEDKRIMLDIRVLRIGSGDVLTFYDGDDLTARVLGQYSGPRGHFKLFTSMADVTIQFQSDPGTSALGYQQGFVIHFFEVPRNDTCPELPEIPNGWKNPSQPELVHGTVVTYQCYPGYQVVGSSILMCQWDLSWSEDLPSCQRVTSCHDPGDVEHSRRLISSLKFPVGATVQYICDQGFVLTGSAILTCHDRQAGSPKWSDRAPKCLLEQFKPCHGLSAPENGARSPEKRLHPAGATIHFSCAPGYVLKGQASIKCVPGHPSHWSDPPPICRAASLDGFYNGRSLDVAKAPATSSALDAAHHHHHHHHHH
Briefly: bio-layer interferometry (ForteBio RED) or surface plasmon resonance (Biacore 2000) on rat SEZ6-His; the table does not say which; column Rat XR (Kd, nM).

Assay [6] has as its target T6, human SEZ6L ECD-His (human, UniProt Q9BYH1 29-955).
T6 construct: whole entry named
T6 sequence: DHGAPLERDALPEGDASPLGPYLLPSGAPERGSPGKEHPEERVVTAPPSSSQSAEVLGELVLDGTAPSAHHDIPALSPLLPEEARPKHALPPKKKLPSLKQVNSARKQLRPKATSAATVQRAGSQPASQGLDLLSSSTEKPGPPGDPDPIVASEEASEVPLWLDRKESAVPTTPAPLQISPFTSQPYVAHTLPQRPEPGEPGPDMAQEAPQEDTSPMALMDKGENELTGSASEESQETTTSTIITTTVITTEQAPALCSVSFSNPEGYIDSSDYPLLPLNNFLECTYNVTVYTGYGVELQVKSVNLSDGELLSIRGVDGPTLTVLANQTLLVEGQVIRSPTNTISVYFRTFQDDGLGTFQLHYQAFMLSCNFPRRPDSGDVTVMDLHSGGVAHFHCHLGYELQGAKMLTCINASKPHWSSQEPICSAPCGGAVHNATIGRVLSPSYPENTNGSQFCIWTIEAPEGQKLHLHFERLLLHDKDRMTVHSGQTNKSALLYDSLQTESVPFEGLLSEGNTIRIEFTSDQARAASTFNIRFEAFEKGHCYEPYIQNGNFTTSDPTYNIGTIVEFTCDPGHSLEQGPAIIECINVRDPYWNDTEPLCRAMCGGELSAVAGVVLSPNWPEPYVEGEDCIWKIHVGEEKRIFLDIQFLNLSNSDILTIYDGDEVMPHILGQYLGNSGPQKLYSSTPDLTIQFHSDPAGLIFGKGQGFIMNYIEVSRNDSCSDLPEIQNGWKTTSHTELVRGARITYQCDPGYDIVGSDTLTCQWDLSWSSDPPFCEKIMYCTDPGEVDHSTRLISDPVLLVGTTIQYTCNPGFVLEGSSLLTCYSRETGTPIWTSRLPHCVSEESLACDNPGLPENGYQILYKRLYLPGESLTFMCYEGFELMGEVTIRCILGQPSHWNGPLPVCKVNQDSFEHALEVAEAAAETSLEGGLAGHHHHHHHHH
Briefly: ELISA on plates coated with SEZ6L protein. On the technique in general: In an ELISA, binding on a coated surface is turned into a signal by an enzyme label.

Assay [7] deals with T7, SEZ6 CUB Domain 1 (aa 397-508) on yeast (human, UniProt Q53EL9 416-527).
T7 construct: yeast display
T7 sequence: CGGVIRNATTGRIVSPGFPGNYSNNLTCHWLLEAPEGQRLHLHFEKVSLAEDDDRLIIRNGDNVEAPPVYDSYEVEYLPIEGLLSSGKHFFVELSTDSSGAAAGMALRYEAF
Nature of the assay: yeast display, flow cytometry.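 Also: antibody binding to individual SEZ6 domains displayed on yeast, measured by flow cytometry, antibody at 50 nM purified or hybridoma supernatant diluted 1:2, 90 min on ice.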

For assay [8], the target named is T8, rat SEZ6 on RIN-m5F cells (rat, UniProt Q7TSK2 20-991 (mouse entry)).
T8 construct: endogenous on RIN-m5F cells; also called rSEZ6
T8 chain: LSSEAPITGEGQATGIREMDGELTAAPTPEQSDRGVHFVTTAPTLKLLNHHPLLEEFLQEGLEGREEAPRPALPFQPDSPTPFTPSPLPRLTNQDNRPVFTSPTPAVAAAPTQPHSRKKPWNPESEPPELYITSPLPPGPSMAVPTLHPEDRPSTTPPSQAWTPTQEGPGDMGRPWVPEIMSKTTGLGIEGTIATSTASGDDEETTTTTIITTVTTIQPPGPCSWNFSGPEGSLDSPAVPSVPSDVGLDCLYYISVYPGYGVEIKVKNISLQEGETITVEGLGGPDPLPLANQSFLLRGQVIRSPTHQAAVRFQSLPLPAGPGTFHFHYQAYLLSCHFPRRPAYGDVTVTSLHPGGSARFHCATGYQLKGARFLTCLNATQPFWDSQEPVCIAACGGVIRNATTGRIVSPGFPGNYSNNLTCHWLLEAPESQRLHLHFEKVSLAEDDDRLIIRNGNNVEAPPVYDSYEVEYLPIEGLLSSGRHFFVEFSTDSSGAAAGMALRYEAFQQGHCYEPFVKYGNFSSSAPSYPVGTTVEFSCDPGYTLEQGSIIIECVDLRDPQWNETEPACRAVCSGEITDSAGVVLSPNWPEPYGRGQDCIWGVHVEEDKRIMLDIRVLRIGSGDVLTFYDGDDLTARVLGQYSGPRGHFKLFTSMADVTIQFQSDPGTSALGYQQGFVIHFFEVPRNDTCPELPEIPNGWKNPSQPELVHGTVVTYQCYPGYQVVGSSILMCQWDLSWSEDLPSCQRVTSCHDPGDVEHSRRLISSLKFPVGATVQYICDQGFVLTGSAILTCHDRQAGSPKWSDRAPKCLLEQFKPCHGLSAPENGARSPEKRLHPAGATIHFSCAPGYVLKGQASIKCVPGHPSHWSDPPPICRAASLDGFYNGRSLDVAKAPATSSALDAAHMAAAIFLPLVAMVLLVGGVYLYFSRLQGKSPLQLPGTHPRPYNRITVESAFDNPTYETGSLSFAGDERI
Briefly: flow cytometry on RIN-m5F cells expressing rat SEZ6, verified by BLI or SPR on rat SEZ6-His. Background: A flow cytometer gives signals particle by particle.

Assay [9] concerns the target T9, mouse SEZ6 on Neuro2a cells (mouse, UniProt Q7TSK2 20-991).
T9 construct: endogenous on Neuro2a cells; also called murine SEZ6; mSEZ6
Nature of the assay: flow cytometry on Neuro2a cells expressing mouse SEZ6.

Assay [10] addresses T10, SEZ6 Sushi Domain 1 (amino acids 336-395) on yeast (human, UniProt Q53EL9 355-414).
T10 construct: yeast display
Briefly: yeast display, flow cytometry.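 Also: antibody binding to individual SEZ6 domains displayed on yeast, measured by flow cytometry, antibody at 50 nM purified or hybridoma supernatant diluted 1:2, 90 min on ice.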

T4 sequence (Q6UXD5 other isoform, or with tags, fused parts or gaps): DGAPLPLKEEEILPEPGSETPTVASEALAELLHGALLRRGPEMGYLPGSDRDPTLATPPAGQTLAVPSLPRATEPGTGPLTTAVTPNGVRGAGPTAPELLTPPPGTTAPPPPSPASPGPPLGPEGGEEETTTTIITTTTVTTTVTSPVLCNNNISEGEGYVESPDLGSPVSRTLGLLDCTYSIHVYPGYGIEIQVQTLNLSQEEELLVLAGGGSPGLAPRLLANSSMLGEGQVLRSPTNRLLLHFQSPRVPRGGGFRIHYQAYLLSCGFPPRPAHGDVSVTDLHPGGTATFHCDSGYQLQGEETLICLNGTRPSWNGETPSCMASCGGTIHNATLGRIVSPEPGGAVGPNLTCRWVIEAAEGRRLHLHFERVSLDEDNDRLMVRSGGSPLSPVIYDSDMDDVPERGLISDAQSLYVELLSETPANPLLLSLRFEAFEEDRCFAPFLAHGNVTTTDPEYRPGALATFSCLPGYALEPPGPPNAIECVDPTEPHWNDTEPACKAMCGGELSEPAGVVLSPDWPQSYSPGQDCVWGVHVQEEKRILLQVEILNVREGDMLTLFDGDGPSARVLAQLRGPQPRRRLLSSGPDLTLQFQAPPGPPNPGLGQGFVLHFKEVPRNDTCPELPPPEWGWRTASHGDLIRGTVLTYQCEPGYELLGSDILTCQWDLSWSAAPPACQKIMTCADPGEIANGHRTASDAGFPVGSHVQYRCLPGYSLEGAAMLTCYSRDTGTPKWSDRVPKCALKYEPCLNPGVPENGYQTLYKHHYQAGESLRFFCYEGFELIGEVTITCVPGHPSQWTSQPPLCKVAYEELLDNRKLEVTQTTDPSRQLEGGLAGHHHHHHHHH

B1: SC17.72 (antibody, V domains shown)
VH: EVQLVESGGGLVKPGGSLKLSCAASGFTFSSYGMSWVRQTPEKRLEWVAAINSNGGSTYYPDTVKGRLTISRDNGKNTLYLQMSSLRSEDTALYYCVRDDGYYVFFAYWGQGTLVTVSA
VL: DIQMTQTTSSLSASLGDRVTISCSASQGISNYLNWYQQKPDGTVKLLIYYTSSLHSGVPSKFSGSGSGTDYSLTISNLEPEDIATYYCQQYSKLPYTFGGGTKLEIK
notes: murine mAb
Take B1: in assay [1], the binding result is “binds”.

B2: SC17.42 (antibody, V domains shown)
VH: DVKLVESGGGLVRPGGSLKLSCAASGFTFSRYTMSWVRQTPEKRLEWAATINSGGSNTYYPDSVKGRFTISRDNAKNTLFLQMSSLKSEDTAMYYCTNGNHWGQGTTLTVSS
VL: ENVLTQSPAIMSASPGEKVTMTCSASSSVNYMYWYQQKSSTSPKLWIYDTSKLTSGVPGRFSGSGSGNSYSLTISNMEAEDVATYYCFQGSGYPLTFGSGTKLEIK
notes: murine mAb
As a reminder, the Kd is the concentration at which binding is half-saturated. High values mean lower affinity, low ones higher affinity. As to B2, the Kd was 2.7 nM in [2] and 3 nM in assay [5]. The binding result is “no binding (tested: 5 µg/mL)” in assay [3], “no binding (tested: 1 µg/mL)” in assay [4] and “no binding (tested: 1 µg/mL)” in assay [6].

B3: SC17.76 (antibody, V domains shown)
VH: EVQLVESGGDLVKPGGSLKLSCVASGFTFSSYGMSWVRQTPDKRLEWVATISSGGTFTYYPDSVKGRFTVSRDNAKNTLYLQMSSLKSEDTAMYYCSRHGWGWGQGTLVTVSA
VL: DIVITQDELSNPVTSGESVSISCRSSKSLLYKDGKTYLNWFLQRPGQSPQLLIYLMSTRASGVSDRFSGSGSGTDFTLEISRVKAEDVGVYYCQQLVEYPRTFGGGTKLEIK
notes: murine mAb
For B3, the binding result in assay [7] is listed as “binds”.

B4: SC17.122 (antibody, V domains shown)
VH: B3 VH with Q3H, V23A, F57Y, V70I
VL: B3 VL with E8D
notes: murine mAb
On to B4, for which the binding result in assay [7] is reported as “binds”.

B5: SC17.46 (antibody, V domains shown)
VH: QVQLQQPGAELVKPGASMKLSCKASGYTFTSYWINWVKQRPGQGLEWIGNIFPDTTTTNYNEKFKSKATLTVDTSSSTAYMQLSSLTSDDSAVYYCAREYYDGTYDAMDYWGQGTSVTV
VL: SFVMTQTPKFLLVSAGDRVTITCKASQSVNNDVAWYQQKPGQSPKLLIYYASNRYTGVPDRFTGSGYGTDFTFTISTVQAEDLAVYFCQQDYSSPRTFGGGTKLEIK
notes: murine mAb
With B5, the binding result in assay [3] is on record as “no binding (tested: 5 µg/mL)”; in assay [4], “no binding (tested: 1 µg/mL)”; in [6], “no binding (tested: 1 µg/mL)”; in assay [8] it was “no binding (tested: 5 µg/mL)”; in assay [9], “no binding (tested: 5 µg/mL)”; in assay [10], “binds”.
